This is an account of results in patent US20140147444A1 (published 2014).

Residue numbers refer to the chain shown, from its start. Numbers in names are those of the source.

To fix the notation:
T1: human OPGbp [143-317] (human, UniProt O14788 143-317)
T1 construct: also called OPGL
T1 sequence (looked up): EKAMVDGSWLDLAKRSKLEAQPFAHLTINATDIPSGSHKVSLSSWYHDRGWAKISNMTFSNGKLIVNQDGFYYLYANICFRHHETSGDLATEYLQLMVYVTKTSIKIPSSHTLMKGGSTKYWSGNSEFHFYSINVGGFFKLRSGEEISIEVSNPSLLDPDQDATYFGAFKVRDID

B1: “AT” antibody variant S97P (heavy chain CDR3) (antibody, name in Kabat numbering, V domains shown)
VH: QVQLVQSGAEVRKPGASVKVSCKASGYDFSNYAIHWVRQAPGQRLEWMGWINAGNGNTKFSQKFQGRITVTRDTAASTAYMELRSLRSEDTAVYYCARDSPNMVRGIIIAYYFDYWGQGTLVTVSS
VL: EIVMTQSPSSLSASVGDRVTITCRASQSISRYLNWYQLKPGKAPRLLIYGASSLQSGVPSRFSGSGSGAEFTLTISSLQPEDIATYYCQHTRAFGQGTKVEIKR
notes: not shown: human IgG1 CH1, hinge, CH2 and CH3
B2: “AT” antibody variant S97K (heavy chain CDR3) (antibody, name in Kabat numbering, V domains shown)
VH: B1 VH with P101K
VL: B1 VL
notes: as for B1
B3: “AT” antibody variant S97T (heavy chain CDR3) (antibody, name in Kabat numbering, V domains shown)
VH: B1 VH with P101T
VL: B1 VL
notes: as for B1
B4: “AT” antibody variant S97W (heavy chain CDR3) (antibody, name in Kabat numbering, V domains shown)
VH: B1 VH with P101W
VL: B1 VL
notes: as for B1
B5: “AT” antibody variant S97Q (heavy chain CDR3) (antibody, name in Kabat numbering, V domains shown)
VH: B1 VH with P101Q
VL: B1 VL
notes: as for B1
B6: “AT” antibody variant S97I (heavy chain CDR3) (antibody, name in Kabat numbering, V domains shown)
VH: B1 VH with P101I
VL: B1 VL
notes: as for B1
B7: “AT” antibody variant S97H (heavy chain CDR3) (antibody, name in Kabat numbering, V domains shown)
VH: B1 VH with P101H
VL: B1 VL
notes: as for B1
B8: “AT” antibody variant S97G (heavy chain CDR3) (antibody, name in Kabat numbering, V domains shown)
VH: B1 VH with P101G
VL: B1 VL
notes: as for B1
B9: “AT” antibody variant S97D (heavy chain CDR3) (antibody, name in Kabat numbering, V domains shown)
VH: B1 VH with P101D
VL: B1 VL
notes: as for B1
B10: “AT” antibody variant S97N (heavy chain CDR3) (antibody, name in Kabat numbering, V domains shown)
VH: B1 VH with P101N
VL: B1 VL
notes: as for B1
B11: “AT” antibody variant S97E (heavy chain CDR3) (antibody, name in Kabat numbering, V domains shown)
VH: B1 VH with P101E
VL: B1 VL
notes: as for B1
B12: “AT” antibody variant S97Y (heavy chain CDR3) (antibody, name in Kabat numbering, V domains shown)
VH: B1 VH with P101Y
VL: B1 VL
notes: as for B1
B13: “AT” antibody variant S97L (heavy chain CDR3) (antibody, name in Kabat numbering, V domains shown)
VH: B1 VH with P101L
VL: B1 VL
notes: as for B1
B14: “AT” antibody variant S97R (heavy chain CDR3) (antibody, name in Kabat numbering, V domains shown)
VH: B1 VH with P101R
VL: B1 VL
notes: as for B1
B15: “AT” antibody variant S97V (heavy chain CDR3) (antibody, name in Kabat numbering, V domains shown)
VH: B1 VH with P101V
VL: B1 VL
notes: as for B1
B16: “AT” antibody variant S97M (heavy chain CDR3) (antibody, name in Kabat numbering, V domains shown)
VH: B1 VH with P101M
VL: B1 VL
notes: as for B1
B17: “AT” antibody variant S97F (heavy chain CDR3) (antibody, name in Kabat numbering, V domains shown)
VH: B1 VH with P101F
VL: B1 VL
notes: as for B1
B18: “AT” Fab variant D95A (heavy chain CDR3) (Fab, name in Kabat numbering, V domains shown)
VH: B1 VH with D99A, P101S
VL: B1 VL
B19: “AT” antibody variant S97A, N98A (heavy chain CDR3) (antibody, name in Kabat numbering, V domains shown)
VH: B1 VH with P101A, N102A
VL: B1 VL
notes: as for B1
B20: “AT” antibody variant S96A, N98A (heavy chain CDR3) (antibody, name in Kabat numbering, V domains shown)
VH: B1 VH with S100A, P101S, N102A
VL: B1 VL
notes: as for B1
B21: “AT” antibody variant N98A (heavy chain CDR3) (antibody, name in Kabat numbering, V domains shown)
VH: B1 VH with P101S, N102A
VL: B1 VL
notes: as for B1
B22: “AT” antibody variant S96A, S97A (heavy chain CDR3) (antibody, name in Kabat numbering, V domains shown)
VH: B1 VH with S100A, P101A
VL: B1 VL
notes: as for B1
B23: “AT” antibody variant S97A (heavy chain CDR3) (antibody, name in Kabat numbering, V domains shown)
VH: B1 VH with P101A
VL: B1 VL
notes: as for B1
B24: “AT” antibody variant S96A, S97A, N98A (heavy chain CDR3) (antibody, name in Kabat numbering, V domains shown)
VH: B1 VH with S100A, P101A, N102A
VL: B1 VL
notes: as for B1
B25: “AT” antibody variant S96A (heavy chain CDR3) (antibody, name in Kabat numbering, V domains shown)
VH: B1 VH with S100A, P101S
VL: B1 VL
notes: as for B1
B26: “AT” antibody variant N98Y (heavy chain CDR3) (antibody, name in Kabat numbering, V domains shown)
VH: B1 VH with P101S, N102Y
VL: B1 VL
notes: as for B1

In the first assay the target is T1, human OPGbp [143-317]. Put plainly: SPR (BIAcore), immobilized OPGbp [143-317]. Background: Surface plasmon resonance follows binding to a sensor surface in real time, without labels.
The term Kd denotes the constant that tells how readily two partners part at equilibrium. A high value points to a looser complex. The term koff denotes a measure of how fast the partners let go of each other. In general, kon refers to the second-order rate constant of association. B1 displayed a dissociation constant Kd of 24.5 nM, an off-rate (koff) of 0.0269 s⁻¹ and an association rate constant (kon) of 1.1e+06 M⁻¹ s⁻¹.

As for B2, the Kd was 0.4 nM, the off-rate (koff) was determined as 0.00578 s⁻¹ and the on-rate (kon) turned out to be 1.45e+07 M⁻¹ s⁻¹.

In turn, B3 displayed a dissociation constant Kd of 2.51 nM, a koff of 0.00116 s⁻¹ and a kon of 463000 M⁻¹ s⁻¹.

With B4, the binding result was “no binding”.

B5 had an equilibrium dissociation constant (Kd) of 8.19 nM, an off-rate (koff) of 0.00598 s⁻¹ and an on-rate constant (kon) of 730000 M⁻¹ s⁻¹.

Molecule B6 came in with a Kd of 0.87 nM, an off-rate constant (koff) of 0.0018 s⁻¹ and a kon of 2.1e+06 M⁻¹ s⁻¹.

B7 registered a Kd of 3 nM, a koff of 0.00248 s⁻¹ and a kon of 839000 M⁻¹ s⁻¹.

Regarding B8, the binding result is “no binding”.

Take B9: the binding result was “no binding”.

B10 had a Kd of 4.59 nM, an off-rate constant (koff) of 0.00411 s⁻¹ and a kon of 895000 M⁻¹ s⁻¹.

Consider B11, for which the dissociation constant Kd amounted to 1940 nM.

As for B12, the binding result is “no binding”.

Molecule B13 yielded a Kd of 0.92 nM, a koff of 0.00069 s⁻¹ and a kon of 750000 M⁻¹ s⁻¹.

Molecule B14 registered a dissociation constant (Kd) of 28.9 nM, a dissociation rate constant (koff) of 0.118 s⁻¹ and an on-rate (kon) of 4.09e+06 M⁻¹ s⁻¹.

The molecule B15 returned a Kd of 1.18 nM, a dissociation rate constant (koff) of 0.00358 s⁻¹ and a kon of 3.04e+06 M⁻¹ s⁻¹.

Molecule B16 yielded a dissociation constant (Kd) of 12.4 nM, a koff of 0.029 s⁻¹ and an on-rate constant (kon) of 2.33e+06 M⁻¹ s⁻¹.

With B17, the binding result is given as “no binding”.

The target of the next assay is T1, human OPGbp [143-317]. Put plainly: SPR (BIAcore), immobilized OPGbp [143-317]. The source holds these as a separate data set.
For B18, the binding result was “no binding”.

Another assay concerns the target T1, human OPGbp [143-317]. Put plainly: SPR (BIAcore), immobilized OPGbp [143-317]. This is another data set of the same source.
Consider B19, for which the binding result was “no binding”.

For B20, the binding result is on record as “no binding”.

Regarding B21, binding was put at a Kd of 0.67 nM, the koff amounted to 0.0009 s⁻¹ and the kon turned out to be 1.3e+06 M⁻¹ s⁻¹.

Consider B22, for which the dissociation constant (Kd) amounted to 8.9 nM, the off-rate constant (koff) came out at 0.00284 s⁻¹ and the kon is 317000 M⁻¹ s⁻¹.

The molecule B23 registered a Kd of 2.9 nM, a koff of 0.0015 s⁻¹ and an on-rate constant (kon) of 530000 M⁻¹ s⁻¹.

In the case of B24, the binding result is “no binding”.

B25 gave a Kd of 2.5 nM, a koff of 0.00064 s⁻¹ and a kon of 260000 M⁻¹ s⁻¹.

A further assay addresses T1, human OPGbp [143-317]. Put plainly: SPR (BIAcore), immobilized OPGbp [143-317]. This is another data set of the same source.
B26 gave a Kd of 41.3 nM, a koff of 0.0112 s⁻¹ and an association rate constant (kon) of 272000 M⁻¹ s⁻¹.
